The supplement of paper PMC12764529
± gives the half width of the 95% confidence interval.

assay: folding stability dG unfold (combined trypsin and chymotrypsin); higher = more stable
In short: (§1)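 Only designs with AlphaFold2 dimer inter-PAE above 15 were retained; each was a mini-protein under 80 residues with no cysteine, in a PA-tagged cDNA display construct. After digestion with trypsin and chymotrypsin and sequencing, K50 was inferred by Bayesian fitting of counts, and unfolding free energy was derived per protease or combined against a sequence-predicted unfolded-state K50 and a shared folded-state K50.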

Sequence | folding stability dG unfold [kcal/mol]
SAGATFKPGQTVTVVEVKVEVSVSLSRNADGSVSLSVSVRVEVKTTTVTLPEPATVTLPPGVKSLEDLLSAG [r5_770_TrROS_Hall] | 3.27 ± 0.089
SAGGLEIDTSDGNVKVTKVSTKTTVEKDPTNPDRYRIITSKEIKTEPVKPPDVKEGPPIGLNNPELLSAGGS [r16_395_JUSTAS] | 0.165 ± 0.49
SAETVTITLPGATITVEKVDGKWIATVTKVEPGADKVTVEVTLTKVDEDGNTTTVTETVTIDAKTGKVLSAG [r14_724_TrROS_Hall] | 2.81 ± 0.23
SAGGSAGGKPKTYIILVIEDPENDKYLALLFDENGKLIGTAPFKSIDELLEKLPKNVKVIVLPASAGGSAGG [r6_492_TrMRF] | 4.24 ± 0.1
SAGLEDAQKEKRFVIKIEIRHPNGEKVKMTIAFKPGDPEDIRDELRKMGMPPDDLNERNPNLKIDEIEPSAG [r5_430_TrROS] | 1.29 ± 0.11
SAGGSAGGSAGGMPPGTVVRSEVVRTETFTETITLPSGETATTTVTTTTTTEVEVEQPLSAGGSAGGSAGGS [r10_297_JUSTAS] | 0.54 ± 0.22
SGYLDAPVKDIKVEKKPIPTSGKVTYTFEAETEDGKPVRVEYNPVTGKIVFGLPPGFKIKPGKPAEVVVGSA [r9_509_TrMRF] | 0.718 ± 0.13
SAGGSAGGSMFKVIVESEDPEKALEEAKALIEKIEEEGIGEIKKFEFLIVPKDIPEYKKLKEKSAGGSAGGS [r12_551_TrMRF] | -0.0656 ± 0.3
SAIKIKNVEFNDNGWMEIEIPYPENGREVTIRMDPNGNIQVEEYPPNDGKPKRKTIPGMSIEEILEELLSAG [r14_760_TrROS] | 0.55 ± 0.33
SAGGSAGGSAPDVEVEPFTLPSGEEAVAFRLPDGSRVVLVGDKAVLFYKDGKVEEVPLEEILSAGGSAGGSA [r18_379_TrMRF] | 1.76 ± 0.13
SAGGSAGGKSPEDRQRENMKPVPPIEVVEIRIPIPPGMPIDQAKNIASNLMEHLGVDYVRIEITSAGGSAGG [r6_517_TrROS] | 0.297 ± 0.24
SSEKEVEVTIKIPLYYERPDGTIEEYDIEIKVKVKIDNGGFIAENLEEAIREVLEKLNIPEGHPDAPYFNKS [r1_175_TrMRF] | 1.02 ± 0.33
SLPPSLTYTLKLSHPDGSTVTATVFPGGSLRVTVYAPGGVKVAESEYPVDDLEALMKALGIKEVLSMELASA [r9_1107_JUSTAS] | 2.67 ± 0.13
SAGGMGRARLYELEIEVDLHPDETIEGALRRLLGLREDEEILEVEAEVDPVNGKVRIRAVVLVRDPETSAGG [r13_828_TrMRF] | 3.85 ± 0.081
SMVRITVYRNGKELSEEELRELAAELERETGRRITVEELARRLAARPGLTVRIEVFNEDGELVEERELRVSA [r9_1045_TrROS_Hall] | 4.71 ± 0.076
SAGGSAGGSAGGGLVPIPVNAILLDENGVPKGTFDGYPLLKAGIPLEEFAKKYGFKVETSAGGSAGGSAGGS [r10_153_TrMRF] | -0.552 ± 0.16
SAGGKKKKVITVEVPPEATAEELLAALKKADKVFIRTKDGKVREIKVGEKVSPEELKVKPGDTVEIYVSAGG [r13_399_TrROS_Hall] | 1.53 ± 0.24

assay: folding stability dG unfold from chymotrypsin proteolysis; higher = more stable
In short: as §1

Sequence | folding stability dG unfold [kcal/mol]
SAGATFKPGQTVTVVEVKVEVSVSLSRNADGSVSLSVSVRVEVKTTTVTLPEPATVTLPPGVKSLEDLLSAG [r5_770_TrROS_Hall] | 3.73 ± 0.096
SAGGLEIDTSDGNVKVTKVSTKTTVEKDPTNPDRYRIITSKEIKTEPVKPPDVKEGPPIGLNNPELLSAGGS [r16_395_JUSTAS] | 0.418 ± 0.47
SAETVTITLPGATITVEKVDGKWIATVTKVEPGADKVTVEVTLTKVDEDGNTTTVTETVTIDAKTGKVLSAG [r14_724_TrROS_Hall] | 2.92 ± 0.19
SAGGSAGGKPKTYIILVIEDPENDKYLALLFDENGKLIGTAPFKSIDELLEKLPKNVKVIVLPASAGGSAGG [r6_492_TrMRF] | 4.47 ± 0.11
SAGLEDAQKEKRFVIKIEIRHPNGEKVKMTIAFKPGDPEDIRDELRKMGMPPDDLNERNPNLKIDEIEPSAG [r5_430_TrROS] | 1.59 ± 0.079
SAGGSAGGSAGGMPPGTVVRSEVVRTETFTETITLPSGETATTTVTTTTTTEVEVEQPLSAGGSAGGSAGGS [r10_297_JUSTAS] | 0.469 ± 0.047
SGYLDAPVKDIKVEKKPIPTSGKVTYTFEAETEDGKPVRVEYNPVTGKIVFGLPPGFKIKPGKPAEVVVGSA [r9_509_TrMRF] | 0.885 ± 0.2
SAGGSAGGSMFKVIVESEDPEKALEEAKALIEKIEEEGIGEIKKFEFLIVPKDIPEYKKLKEKSAGGSAGGS [r12_551_TrMRF] | 0.438 ± 0.18
SAIKIKNVEFNDNGWMEIEIPYPENGREVTIRMDPNGNIQVEEYPPNDGKPKRKTIPGMSIEEILEELLSAG [r14_760_TrROS] | 0.25 ± 0.13
SAGGSAGGSAPDVEVEPFTLPSGEEAVAFRLPDGSRVVLVGDKAVLFYKDGKVEEVPLEEILSAGGSAGGSA [r18_379_TrMRF] | 1.78 ± 0.1
SAGGSAGGKSPEDRQRENMKPVPPIEVVEIRIPIPPGMPIDQAKNIASNLMEHLGVDYVRIEITSAGGSAGG [r6_517_TrROS] | -0.478 ± 0.21
SSEKEVEVTIKIPLYYERPDGTIEEYDIEIKVKVKIDNGGFIAENLEEAIREVLEKLNIPEGHPDAPYFNKS [r1_175_TrMRF] | 0.155 ± 0.48
SLPPSLTYTLKLSHPDGSTVTATVFPGGSLRVTVYAPGGVKVAESEYPVDDLEALMKALGIKEVLSMELASA [r9_1107_JUSTAS] | 2.85 ± 0.071
SAGGMGRARLYELEIEVDLHPDETIEGALRRLLGLREDEEILEVEAEVDPVNGKVRIRAVVLVRDPETSAGG [r13_828_TrMRF] | 4.22 ± 0.032
SMVRITVYRNGKELSEEELRELAAELERETGRRITVEELARRLAARPGLTVRIEVFNEDGELVEERELRVSA [r9_1045_TrROS_Hall] | 5.14 ± 0.11
SAGGSAGGSAGGGLVPIPVNAILLDENGVPKGTFDGYPLLKAGIPLEEFAKKYGFKVETSAGGSAGGSAGGS [r10_153_TrMRF] | -0.57 ± 0.24
SAGGKKKKVITVEVPPEATAEELLAALKKADKVFIRTKDGKVREIKVGEKVSPEELKVKPGDTVEIYVSAGG [r13_399_TrROS_Hall] | 1.74 ± 0.096

assay: folding stability dG unfold from trypsin proteolysis; higher = more stable
In short: as §1

Sequence | folding stability dG unfold [kcal/mol]
SAGATFKPGQTVTVVEVKVEVSVSLSRNADGSVSLSVSVRVEVKTTTVTLPEPATVTLPPGVKSLEDLLSAG [r5_770_TrROS_Hall] | 2.37 ± 0.097
SAGGLEIDTSDGNVKVTKVSTKTTVEKDPTNPDRYRIITSKEIKTEPVKPPDVKEGPPIGLNNPELLSAGGS [r16_395_JUSTAS] | 0.475 ± 0.2
SAETVTITLPGATITVEKVDGKWIATVTKVEPGADKVTVEVTLTKVDEDGNTTTVTETVTIDAKTGKVLSAG [r14_724_TrROS_Hall] | 2.7 ± 0.32
SAGGSAGGKPKTYIILVIEDPENDKYLALLFDENGKLIGTAPFKSIDELLEKLPKNVKVIVLPASAGGSAGG [r6_492_TrMRF] | 3.6 ± 0.11
SAGLEDAQKEKRFVIKIEIRHPNGEKVKMTIAFKPGDPEDIRDELRKMGMPPDDLNERNPNLKIDEIEPSAG [r5_430_TrROS] | 0.646 ± 0.084
SAGGSAGGSAGGMPPGTVVRSEVVRTETFTETITLPSGETATTTVTTTTTTEVEVEQPLSAGGSAGGSAGGS [r10_297_JUSTAS] | 0.233 ± 0.079
SGYLDAPVKDIKVEKKPIPTSGKVTYTFEAETEDGKPVRVEYNPVTGKIVFGLPPGFKIKPGKPAEVVVGSA [r9_509_TrMRF] | 0.16 ± 0.081
SAGGSAGGSMFKVIVESEDPEKALEEAKALIEKIEEEGIGEIKKFEFLIVPKDIPEYKKLKEKSAGGSAGGS [r12_551_TrMRF] | -0.306 ± 0.45
SAIKIKNVEFNDNGWMEIEIPYPENGREVTIRMDPNGNIQVEEYPPNDGKPKRKTIPGMSIEEILEELLSAG [r14_760_TrROS] | 1.08 ± 0.24
SAGGSAGGSAPDVEVEPFTLPSGEEAVAFRLPDGSRVVLVGDKAVLFYKDGKVEEVPLEEILSAGGSAGGSA [r18_379_TrMRF] | 1.46 ± 0.042
SAGGSAGGKSPEDRQRENMKPVPPIEVVEIRIPIPPGMPIDQAKNIASNLMEHLGVDYVRIEITSAGGSAGG [r6_517_TrROS] | 0.679 ± 0.038
SSEKEVEVTIKIPLYYERPDGTIEEYDIEIKVKVKIDNGGFIAENLEEAIREVLEKLNIPEGHPDAPYFNKS [r1_175_TrMRF] | 1.72 ± 0.19
SLPPSLTYTLKLSHPDGSTVTATVFPGGSLRVTVYAPGGVKVAESEYPVDDLEALMKALGIKEVLSMELASA [r9_1107_JUSTAS] | 1.93 ± 0.082
SAGGMGRARLYELEIEVDLHPDETIEGALRRLLGLREDEEILEVEAEVDPVNGKVRIRAVVLVRDPETSAGG [r13_828_TrMRF] | 2.47 ± 0.087
SMVRITVYRNGKELSEEELRELAAELERETGRRITVEELARRLAARPGLTVRIEVFNEDGELVEERELRVSA [r9_1045_TrROS_Hall] | 3.42 ± 0.058
SAGGSAGGSAGGGLVPIPVNAILLDENGVPKGTFDGYPLLKAGIPLEEFAKKYGFKVETSAGGSAGGSAGGS [r10_153_TrMRF] | -1.08 ± 0.37
SAGGKKKKVITVEVPPEATAEELLAALKKADKVFIRTKDGKVREIKVGEKVSPEELKVKPGDTVEIYVSAGG [r13_399_TrROS_Hall] | 1.12 ± 0.12
